{"source": "the DeepSol protein solubility set"}
{"assay": "soluble on expression in E. coli; label from the status in PepcDB or PDB records"}
{"sequence": "MSLHDVRVYHVQQPMRVGFGHPAATRTTSESVVLELDISGCVGLGECAPRSYVTGETCVTVCDALRSLPLARIIDELLSESPNDVLYRIKRLGIEAAFDFTAANNVVCIVELAILDWIGKRTRVSLDAMLRNGASLAESSAPIKISQVLDQNLTVDDFLRERGPFHFVKIKAHRDRAKDLETVTEIRRAIGDDTPIVIDANMSWSLIEAVEHVRKLREAGLTMVEEPFSKRSWTELHELRVQTGISIMLDESVSTLDDLRRAIGSDSCDAVNVRVSKCGGVLRSIEMIELAKSFGIQFQIGVQVAECGPLIQAGRLLASLHRDAIAVEGGQADRFFDSMIVSPDLSFDRARSTVPPPAGFGLGLSTSTEISKYLAFGYSRSADEWTATSHYTEAEGHHHHHH", "soluble on expression in E. coli": "soluble"}
{"sequence": "MSLHPASANLSPSSVKNCSAKTFGFLILPNFTTIGLASAVETLRMANLAARKPLYRSVLIAADDAPVVASNGMRVLPDYNITNAPALDALLVVGANPIDRSRSNRPLIDWLRQLARQRLPLGGICTGSYLLAKAELLKGYRCTIHWEDLPTLQAHFPGIVISSQLFELDRDRYTCSGGVAAMDMMLQLVARDTGGQDIAAKAAELLLCDRVRGEREGHHHHHH", "soluble on expression in E. coli": "soluble"}
{"sequence": "MSLHWLNRNTRKGSQKNIAAHYDLGNTLFEQFLDPTMMYSAAQFLSNDDTLEQAQLNKLERICQKLALKPTDHLLEIGTGWGSMAIYAAQQYGCRVTTTTLSREQFAYTEQRLIKLGLQDRVTLLLTDYRDLTGEYDKLVSIEMIEAVGHRFLPTYFKQCASLLKSNGMMLLQAITIREQRYAQAKRNVDFIQRYIFPGGALPSVAKMLDIVGSDTDMNLLHMEDFGLHYARTLRLWHDNFKHAHGTLTELGYDDYFLRLWEFYLCYCEGGFLERTIGTAQLLLAKPDALREGHHHHHH", "soluble on expression in E. coli": "not soluble"}
{"sequence": "MSLHYPFVTNDDIEWMLSICVEWRLPEIAKEIYTTLGNQMLSAHNIIESIANFSRAGKYELVKSYSWLLFEASCMEGQKLDDPVLNAIVSKNSPAEDDVIIPQDILDCVVTNSMRQTLAPYAVLSQFYELRDREDWGQALRLLLLLIEFPYLPKHYLVLLVAKFLYPIFLLDDKKLMDEDSVATVIEVIETKWDDADEKSSNLYETIIEADKSLPSSMATLLKNLRKKLNFKLCQAFMEGHHHHHH", "soluble on expression in E. coli": "not soluble"}
{"sequence": "MSLIAIYVRVSTEEQAIKGSSIDSQIEACIKKAGTKDVLKYADEGFSGELLERPALNRLREDASKGLISQVICYDPDRLSRKLMNQLIIDDELRKRNIPLIFVNGEYANSPEGQLFFAMRGAISEFEKAKIKERTSSGRLQKMKKGMIIKDSKLYGYKFVKEKRTLEILEEEAKIIRMIFNYFTDHKSPFFGRVNGIALHLTQMGVKTKKGEGHHHHHH", "soluble on expression in E. coli": "not soluble"}
{"sequence": "MSLIGALIATIIPGLSNNSPPTQLSSLATLALPLPPPYTSTADTWRMVTIKPGQTLSSIFNELKLSSNDMERVLNYADLRKLLTRLSPGDEISFDIPNDGQLRGMRFNRDEKHRVELTLDDNTIHQQVSERQTSTRTVIASGEIKSSLWIAAREAGLSPADVITLTDEIFKYDIDFDKDLQTGDRFSVVMDETWREGERLPDAKILAATFNTGGKIYSGMRFMRDGKVEYFDKDGRPLKKSFIRMPISYARLSSTFGLRRHPILGTMRMHKGVDYAAATGTPIMAAGDARVQFIGQQRGYGNVVILNHGKGYRTLYGHMSRFGKIKAGQKINQGTVIGYVGMTGLATGPHLHYEFQVNGQHRNPLSITMPPPEPLRGKDLIAFRTQTAPLIAQIQQYEKRFYAITNKHDSKSTEKSTRGEGHHHHHH", "soluble on expression in E. coli": "not soluble"}
{"sequence": "MSLIIAIQGGMAVGKTTALKIIEKVYPKIAISFEDISPVVDKINKHQLDNNKLDDYCEIQQLFIQHERDRYELVRDNEIVLMDYGAEEIAFYTQYFPKVAGYSWTLPSNLLLEVNRLKECFADYIIFLDADKTVLYQRQKNDFNRRRHFFKWYTHHLLPAKKHYLDTFSNVIHINTNHLNAEEVAEKIIDIIRKLTEGHHHHHH", "soluble on expression in E. coli": "soluble"}
{"sequence": "MSLIIETPSKVILFGEHAVVYGYRAISMAIDLTSTIEIKETQEDEIILNLNDLNKSLGLNLNEIKNINPNNFGDFKYCLCAIKNTLDYLNIEPKTGFKINISSKIPISCGLGSSASITIGTIKAVSGFYNKELKDDEIAKLGYMVEKEIQGKASITDTSTITYKGILEIKNNKFRKIKGEFEEFLKNCKFLIVYAEKRKKKTAELVNEVAKIENKDEIFKEIDKVIDEALKIKNKEDFGKLMTKNHELLKKLNISTPKLDRIVDIGNRFGFGAKLTGAGGGGCVIILVNEEKEKELLKELNKEDVRIFNCRMMNEGGSHHHHHH", "soluble on expression in E. coli": "soluble"}
{"sequence": "MSLIIKGALVWSGKEFVQKDLFVENGEFVEKSSEPVIDAKGYFLVPGFVDSHAHVVGTGFSKLSVQFNDWDELFERDLTSEVVVGRGWFEEPDGSVVERLDRIEAPVFLIRRCGHKAFLNKKAMEVLGVEERYLVENLEKIYEYVFKEKIAEFYRVGEEEFLKHGVTFVQSDDLYGVSVERLLSIIKHSRIRLFEKLKPKDLKPEHFGDLNKRVHVKGVKVFMDGSLGAKTALISGEYDDGTQGVQLLTEEKLEELARFCDEHDLILNVHAIGDSAVSLVLDVLERHRGHRIIHAQFVQEKDLQRVKNTTFSVQPHFFFEDQPLLKKVKVNALHYPFYRMFKAGVSISFSSDSPVSPCDPKYIAEHALKMGFSREETFYLMTEAGASQVGIKTGKIEAGYRADFCLYERNPLLFEDDPIAVFVEGEKIYEKNGSSHEGHHHHHH", "soluble on expression in E. coli": "soluble"}
{"sequence": "MSLIITDDHMHLYNHLKLKALEQFRDAGGTHVFLVNLLCHHYGIRPTSGKDFREVFERHLSLVEKANKIVKAYAVLGVHPAEITVIGDRIGHEKAAEMMKEALEIAGKYVEEGKAVALKSGRPHYPVSRHVWQLSNDVLRHAFEVAKDVGCAIQLHTESYTKEGMLEIAKMADEVGLKREKVVKHFSPPLIKEFEEIGIFPSVLAGNNNVLKAAEQGNRFTVETDYIDDRKRPGAVLGPKTVPRKVKELIELGYEDIAYKICVENVEKVYGVELEEEGHHHHHH", "soluble on expression in E. coli": "soluble"}
{"sequence": "MSLIQLRPCPKSYTRDQDKATTPAETVRRVRERLASLDISILAETRRVDVGRLGIPVFLSVCGADARAVMPTRKQMGKGASLEQAQASALMELMERYSFFTFWRDMPGMVEATWSEARNRFGDALIPVDEILHSVHDTLSPDDAVRALDLWRWKFFPATDITHGREVWLPLDWFKKLGEFNGSSAGNTEEESILQGSCELVERHVCCLIDRTQPELPTIDPASLDDPVLLELAAAFERNGIRLVLKDFSMGMPVPTVGAIAWDPATFPERSEIVYTAGTSSSPVKAAIRAVTEVAQLAGDFCTGACYEASGLSKYESLDDIAWLVAGPVVALDTLPSVETDDIRDELAALCDGLAATGHTLYSVSTMNPDVGVNTHYNIVPGFHFRERDRNASLGLFIGRILSEEADAGTALAGLSVLEELYPGAHFLPFFKGMLALRAESHHEAISFFEQAEPLQPEADSRGLAAFYGAYVRTLLTDWQGALPGLDRAVTECPEMKEYFNLRGVCHFKLGDYAQAAQNFAQVLHIDKGAVVDLANLGLCHKFMGDTEKAEELLSAALEIDPGLDFARRHLDEMREGHHHHHH", "soluble on expression in E. coli": "soluble"}
{"sequence": "MSLISLQSDQLLEATVGQFMIEADKVAHVQVGNNLEHALLVLTKTGYTAIPVLDPSYRLHGLIGTNMIMNSIFGLERIEFEKLDQITVEEVMLTDIPRLHINDPIMKGFGMVINNGFVCVENDEQVFEGIFTRRVVLKELNKHIRSLNKEGGSHHHHHH", "soluble on expression in E. coli": "soluble"}
{"sequence": "MSLIYSSENDYSILEDKTATGKKRDWKGKKRRTNLMAEHYEALESKIGAPYYGKKAEKLISCAEYLSFKRDPETGKLKLYQAHFCKVRLCPMCAWRRSLKIAYHNKLIVEEANRQYGCGWIFLTLTIRNVKGERLKPQISAMMEGFRKLFQYKKVKTSVLGFFRALEITKNHEEDTYHPHFHVLIPVRKNYFGKNYIKQAEWTSLWKKAMKLDYTPIVDIRRVKGKAKIDAEQIENDVRNAMMEQKAVLEISKYPVKDTDVVRGNKVTEDNLNTVLYLDDALAARRLIGYGGILKEIHKELNLGDAEDGDLVKIEEEDDEVANGAFEVMAYWHPGIKNYIIKEGHHHHHH", "soluble on expression in E. coli": "soluble"}
{"sequence": "MSLKAANRYVAGEKRSDGLAIARKLQAKGYGISLENIGENTKLLAQCREAKMEFDQLIEDVGAIAPGQTVSFDLSHIGLSYQFDTAYGHLIELAEKANEHEVTLMISMEESTKTDQILAVYRQAAELYSNIGITLQAHLFRTPDDLRKLVQLPGKIRIVKGAYQEPSHLAMERSDYLNNRYLELVDHLVSTNHPVSVATHDQKLLEEMERRQFLQSTDVEIEMLYGIQPSQLKLFKEKGYQTRVYLTYGHEWFLYLCHRLAEYPENIYTALIDIINPSLPKVDDMYEGHHHHHH", "soluble on expression in E. coli": "not soluble"}
{"sequence": "MSLKARKSWISDKGPLSVSTQCELAGVTRSGYYGQSKSLMPNTEDLELMKLIDEEYTRHPFYGSRRMKRVLLAQGRKVNRKRVQRLMRNLGLAGIAPGPNTSKPHPQHKIYPYLLRGLVITRPNHVWSTDVTYCRLPGGFMYLTAVIDWYSRKVLAWRLSNSLDSSFCVDCLEEAIRKYGMPEIFNTDQGTQYTSEAFTGVLKSHDIRISMDGRGRALDNIFVERLWRNVKQEDLYLKGYETAVEMMRGLTEYFRFYNIERPHQSLGYKTPDEVYESATGGGARIVDKFFQKSVSEGSSEATGPQQEAAEGHHHHHH", "soluble on expression in E. coli": "soluble"}
{"sequence": "MSLKATYSMLSQVTFPLAEAGYYVVPVALADETFRQNGLTSAGDVHQVSPAKLREIYGADAALYVTVSDYGTRYMVISSATIVTASAKLVDLRSGTTLWTGSATASSEEGNGGNNGGLVGMLITAAVKQIINSSVEDAGYPIAGMTSARLLSAGQPGGLLYGPRSPRYGSDEGHHHHHH", "soluble on expression in E. coli": "soluble"}
{"sequence": "MSLKDFAGRTAFVTGGANGVGIGLVRQLLNQGCKVAIADIRQDSIDKALATLEAEGSGPEVMGVQLDVASREGFKMAADEVEARFGPVSILCNNAGVNLFQPIEESSYDDWDWLLGVNLHGVVNGVTTFVPRMVERVKAGEQKGGHVVNTASMAAFLAAGSPGIYNTTKFAVRGLSESLHYSLLKYEIGVSVLCPGLVKSYIYASDDIRPDALKGEVKPVDKTAVERLAGVHEFGMEPDVIGARVIEAMKANRLHIFSHPDHKEELREVFDEIIAEYQDYPKDPGYDQRVAFEKFRADSFAEARRQSRAADEGHHHHHH", "soluble on expression in E. coli": "soluble"}
{"sequence": "MSLKDSGILFVDDDILFLALLRECFMQRGIVIQCAENGEDALQMIQQRPFALLLTDLQMPGMDGLELAGKARKLMPDLPIVLCTGAVTPEVCALAEEIGIAQVVRKPIRFSELFAIVGNIVSLQQTEGHHHHHH", "soluble on expression in E. coli": "soluble"}
{"sequence": "MSLKEFYIGDQFYLDGEPFKILSGAIHYFRVHPDDWYHSLYNLKALGFNTVETYVPWNMHEPRKGEFCYEGILDIERFLKLAQELGLYAIVRPSPYICAEWEWGGLPAWLMKEELRVRSSDSVYLQHLDEYYVSLIPKLAKLQLAQGGNVLMFQVENEYGSYGEEKAYLRAVAGLMRKHGLTAPLFTSDGSWRATLRAGTLIEDDVFVTGNFGSKARENFANMTAFFNEHQKNWPLMCMEFWDGWFNRWGDEIIRREPEEMVDSVMECIELGSLNLYMFHGGTNFGFMNGCSARGQIDLPQVTSYDYDAILDEAGNPTKKFYILQQRLKEVYPELEYAEPLVKEAKAFSDVSLHDKVSLFATLENVSDCVKGFYPKNMEELDQSTGYILYRTELERDKTEAERFRVVDARDRIQIYADGKFVATQYQTEIGDDVELDFKDDKLTLDILVENMGRVNYGHKLTAPTQSKGIGRGAMADLHFIGHWETYPLHLESVEDLDFSKGWEEGQAAFYRYQFELDELADTYLDMTGFGKGVVFVNNVNIGRFWEKGPILYLYIPKGYLKKGANEIVVFETEGKYREKIHFSQRPVIKDLEGHHHHHH", "soluble on expression in E. coli": "soluble"}
{"sequence": "MSLKEVIFVLLNEFADWEGAFIAACLNQGVMPGSPVPYKVKTLSITKEPVSSIGGFRVLPDYDLKDMPEDYAGLILIGGMSWFSPEAELIAPLIEKAIKDKKVVGGICNASVFLAMHGFLNNVKHTSNTIDYLKQHVGERYTGDSNYVDQQAVRDGKIITANGTGQLEFCREILYALEADTAEAIEKSYLFYKNGEGHHHHHH", "soluble on expression in E. coli": "soluble"}
